Experimental data reported in the Human Domainome abundance scans (Beltran et al. 2025).

B1: Zinc finger homeobox protein 4, residues 2562 to 2617; numbered along this chain, Q86UP3 (parent)
chain: RLRTTITPEQLEILYEKYLLDSNPTRKMLDHIAREVGLKKRVVQVWFQNTRARERK

Variants of: B1
Assay: abundance fitness (aPCA) (normalised: wild type 0, dead -1); higher = more abundant; growth selection in yeast, the domain comes from the species named
Details: Homo sapiens

Abundance fitness of substitutions, site by site:
Q10: M -0.326, C -0.847, W -0.695, S -0.603, D 0.18, K -0.524, I -0.086, G -0.695, V -0.283
A52: K -0.086, S -0.197, N 0.189, C -0.702, M -0.268, Y -0.781, V -0.327
I13: C -0.389, E -0.06, P -0.68, K 0.173, L -0.097, R -0.003, Y -0.017
R55: C 0.063, L 0.128, V 0.276
Q48: L -0.611, P -1.02, G 0.178, M -0.16, E 0.433, K -0.006, N -0.216, S -0.049
V43: A -0.462, F -0.861, S -0.723, I -0.147, E -0.925
V42: Q -0.038, D 0.23, K -0.302
Y15: D -0.02, F -0.193, C -0.063, Q 0.092
R51: P -1.05, C -0.267, G -0.151, L 0.234
V36: M -0.134, P -0.649
T5: L -0.298, P -0.032, F -0.312, N 0.265, Q 0.085, I 0.057
T50: Y -0.107, C -0.345, W -0.097, G -0.367
V45: H -0.262, R -0.402, A -0.243, N -0.384, S -0.309, D 0.192, Y -0.036, I -0.057, E 0.535, C -0.352, K -0.249
A33: P -0.563, Q -0.669, D -0.526, G -0.344
L2: C -0.296, V -0.023, F 0.066, N 0.309, A -0.059, M 0.024
R3: F -0.02, E 0.207, W -0.156, V 0.132, M 0.182, L -0.008
L14: W -1.16, Y -0.867, E -0.924, Q -0.959, M -0.225, K -1.05
N23: A -0.064, L -0.238, F 0.301, W -0.208, Q 0.013
Y18: K -0.544, P -0.842, H -0.773, A -1.06, T -0.874, M -0.856, S -0.975, W -0.31
E9: H -0.257, T -0.105, D 0.038, L -0.202
R1: T -0.054, N 0.002, C 0.24, S 0.311
N49: T -0.102, Y -0.414, M 0.029, E 0.253, Q -0.104, P -0.73, V -0.125, D -0.043, G -0.182
T7: Q -0.295, N -0.238, K -0.55, L -0.206, E 0.259
K17: S -0.164, L -0.508, H -0.441, P -0.334, A -0.289, V -0.552, N 0.008, M -0.024
K39: F -0.862, G 0.117, L 0.072, V -0.01, Q 0.032, S 0.278, R -0.126, A 0.234, P 0.196
E12: A 0.01, D -0.05, T 0.164, I 0.294, S 0.048, P -0.659, G -0.039
K56: R -0.701, T 0.267, E 0.273
H31: A 0.042, L -0.112, W -0.119, K 0.146, Q 0.176, T 0.206, Y -0.201
R26: E 0.171, G -0.143, I 0.917, Q 0.369, M -0.092
D30: S -0.062, C -0.431, L -0.296
T25: S -0.056, P -0.147, E 0.095, D -0.193, M -0.364, Q -0.476, N -0.148
K27: F -0.265, I -0.245, M -0.206, L -0.019, P 0.128, G 0.074, H 0.083, A 0.169, W -0.302, S 0.074
F47: T -0.789, Q -1.18, W 0.049, D -0.46, P -0.885, K -1
L19: Y -0.153, F -0.065, N -0.091, D -0.098, I 0.196, T -0.175, R -0.112
D21: G -0.433, P -0.769, R -0.796, T -0.458, Q -0.352, L -0.474, F -0.302
P24: Q -0.929, V -0.82, I -0.415, K -0.948
L29: T -0.228, F -0.049, H -0.95, R -0.346, D -0.721, W -0.004, K -0.621, M -0.429, Y -0.239, G -0.94
M28: C -0.067, Y -0.406, V -0.119, K -0.582, N -0.409, W -0.577, D 0.242, L -0.102, E -0.003, G -0.108
R41: P 0.246, L 0.115, Y 0.037, H 0.163, C 0.068, Q 0.476, V 0.013, S 0.306, F -0.044
Q44: I -0.28, L -0.128, V -0.156, C 0.246, K -0.035, E 0.298, A -0.011, H -0.101
P8: S -0.413, T -0.452, R -0.254, L 0.167, K -0.272, E 0.197, I 0.043
I32: V -0.204, C -0.518, T -0.405, Y -0.208, A -0.786, M -0.366, F -0.377
K40: G 0.103, A 0.163, Y 0.518, M 0.243, S 0.218, P 0.162
I6: L -0.196, H -0.202, Q -0.761, P -0.056, A -0.266, Y 0.06, E -0.477, K -0.852
W46: G -0.752, T -0.756, E -0.549
E54: C -0.811, Q -0.664, K -0.722, D -0.122, M -0.09, H -0.672
L38: I -0.025, D -0.718, K -0.254
L11: P -1.05, Y -0.159, I -0.037, E 0.092, A -0.059, H -0.01
R34: Q 0.107, H -0.162, D -0.536, C -0.223
T4: M -0.022, F -0.062, C -0.209, V -0.179, G -0.052
R53: D 0.226, C 0.045, E 0.394, S 0.168, Q 0.145, V -0.03
L20: C -0.236, V -0.02, M -0.112, S -0.193, E -0.092, P -0.652, D -0.333, T -0.19
E35: Y -0.493, N -0.358, A -0.235, T -0.254
S22: V -0.403, L -0.56, F -0.168, D 0.035, C -0.075, I -0.436, M -0.155
G37: D -0.065, M -0.465, C -0.006, Q -0.051
